Experimental data: patent US20230322908A1 (AC IMMUNE, published 2023)

B1: ACI-7071-712A6-Ab1 (antibody, mouse IgG2c, V domains shown)
VH: QVQLQQSGAELVKPGTSVKLSCKASAYTFTEYTIHWIKQKSGQGLEWIGWFHPENDNIKYNENFKDKATLTADRSSSTVYMELSRLTSEDSAVYFCAGTSGYGDYWGQGTTLTVSS
VL: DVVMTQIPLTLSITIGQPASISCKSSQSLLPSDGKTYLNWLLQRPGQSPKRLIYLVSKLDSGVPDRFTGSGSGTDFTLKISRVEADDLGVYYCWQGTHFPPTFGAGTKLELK
notes: Mouse IgG2c; also called 712A6B10
B2: ACI-7071-809D9-Ab2 (antibody, mouse IgG2b, V domains shown)
VH: QVQLQQSGAELVRPGVSVKISCKGSGYKFTDYSMHWVKQSHTKSLEWIGVISTYYGDTTYNQKFKGKATITVDKSSSTAYMELARLTSEDSAIYYCATYGNFPASFSYWGQGTLVTVSA
VL: DIVMTQAAPSIPVTPGESVSISCRSSKSLLHSNGNTYLYWFLQRPGQSPQLLIYRMSNLASGVPDRFSGSGSGTAFTLRISRVEAEDVGVYYCMQHLEYPFTFGSGTKLEIK
notes: Mouse IgG2b, kappa, from hybridoma; also called 809D9C2
B3: ACI-7069-636E5-Ab1 (antibody, mouse IgG2b, V domains shown)
VH: EVHLVESGGDLVMPGGSLKLSCAASGFTFSNYGMSWVRQTPDKRLEWVATISSGGKYINYLDSLKGRFTISRDNAKNTLYLQMSSLKSEDTAMYYCAKDYGSGWAWFAYWGQGTLVTVSA
VL: QLVLTQSSSASFSLGASAKLTCTLSSQHSTYTIEWYQQQPLKPPKYVMELKKDGSHSTGDGIPDRFSGSSSGADRYLSISNIQPEDEAIYICGVGDTIKEQFVYVFGGGTKVTVL
notes: Mouse IgG2b, lambda, from hybridoma; also called 636E5B8
B4: ACI-7069-634H10-Ab2 (antibody, mouse IgG2b, V domains shown)
VH: EVQLQQSGAELVKPGASVRLSCTASGFNIKDTYMHWVKQRPEQGLEWIGRIDPANSNTKFDPKFQGKATITSDTSSNTAYLQLSSLTSEDTAVYYCARFYGGSHWYFDVWGAGTTVTVSS
VL: DIKMTQSPSSMYASLGERVTITCKASQDIKSYLSWYQHKPWKSPKALIYYATSLADGVPSRFSGSGSGQDYSLTISSLESDDTATYYCLQQGESPYTFGGGTKLEIK
notes: Mouse IgG2b, kappa, from hybridoma; also called 634H10H7
B5: ACI-7069-642D12-Ab1 (IgG2a variant) (antibody, V domains shown)
VH: EVQLQQSGAELVKPGASVRLSCTASGFNIKDPYMHWVRQRPKQGLEWIGRIDPADGNTKYDPKFQGKATLTADTSSNVAYLHLSSLTSEDTAVYYCARFYGSSHWYFDVWGAGTTVTVSS
VL: DIKMTQSPSSMYASLGERVTITCKASQDIKRYLSWYQQKPWKSPKILIYYATSLADGVPSRFSGTGSGQDYSLTISSLESDDVATYYCLQQGESPYTFGGGTKLEIK
notes: Recombinantly produced mouse IgG2a isotype; also called 642D12B4 *; ACI-7069-642D12-Ab1 (IgG2a isotype)
B6: ACI-7069-631B2-Ab1 (antibody, mouse IgG1, V domains shown)
VH: EVQLQQSGPELVKPGASVKISCKTSGYTFTEYSIHWVKQSHGESLEWIGGINPDNGGTRYNQKFKGKATLTVDKSSSTAYMDLRSLTSEDSAVYYCARESWGQGTTLTVSS
VL: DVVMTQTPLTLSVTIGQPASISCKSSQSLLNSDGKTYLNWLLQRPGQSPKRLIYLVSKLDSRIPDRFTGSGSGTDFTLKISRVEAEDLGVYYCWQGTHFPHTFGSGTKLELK
notes: Mouse IgG1, kappa, from hybridoma; also called 631B2A2
B7: 633B12C8 Fab (Fab, V domains shown)
VH: EVQLQQSGPELVKPGASVKISCKTSGFTFTEYSMHWVKQSHGKSLEWIGGINPNNGGTSYNQKFKGKATLTVDKSSSTAYMELRSLTSEDSAVYYCARESWGQGTTLTVSS
VL: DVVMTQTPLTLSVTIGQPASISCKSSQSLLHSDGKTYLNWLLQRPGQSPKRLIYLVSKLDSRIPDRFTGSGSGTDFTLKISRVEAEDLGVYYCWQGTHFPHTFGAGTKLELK
notes: Fab fragment; also called Fab fragment of ACI-7069-633B12-Ab1
B8: ACI-7069-633B12-Ab1 (IgG2a variant) (antibody, V domains shown)
VH: EVQLQQSGPELVKPGASVKISCKTSGFTFTEYSMHWVKQSHGKSLEWIGGINPNNGGTSYNQKFKGKATLTVDKSSSTAYMELRSLTSEDSAVYYCARESWGQGTTLTVSS
VL: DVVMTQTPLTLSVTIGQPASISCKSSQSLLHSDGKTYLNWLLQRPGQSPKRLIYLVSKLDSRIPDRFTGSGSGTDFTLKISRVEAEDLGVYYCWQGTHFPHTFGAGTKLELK
notes: Recombinantly produced mouse IgG2a isotype; also called 633B12C8*; ACI-7069-633B12-Ab1 (IgG2a isotype)
B9: ACI-7071-809F12-Ab1 (antibody, mouse IgG2b, V domains shown)
VH: QVQLKESGPGLVAPSQSLSITCTVSGFSLNRNGVQWVRQPPGKGLEWLGVIWPGGSTNCNSALMSRLSISKDNSKSQVFLKMNSLHTDDTGIYYCARVGGNYVWDYNNYAWGQGTLVTVSA
VL: DVLMTQTPLSLPVSLGDQASISCRSSQNIVHSIGNTYLEWYLQKPGQSPKLLIYKVSNRFSGVPDRFSGSGSGTDFTLKISRVEAEDLGVYYCFQGSHVPYTFGGGTKLEIR
notes: Mouse IgG2b, kappa, from hybridoma; also called 809F12D8
B10: ACI-7069-641H1-Ab2 (antibody, mouse IgG2b, V domains shown)
VH: QVQLKESGPGLVAPSQSLSITCTVSGFSLTNYGVHWVRQPPGKGLEWLGLMWAGGSTNYNSALMSRLSISKDNSKSQVFLKMNSLQTDDTAMYYCVIYRTGFAYWGQGTLVTVSA
VL: DVLMTQTPLSLPVSLGDQASISCRSSQSIVHTIGNTYLEWYLQKPGQSPKLLIYKVSNRFSGVPDRFSGSGSGTDFTLKISRVEAEDLGVYYCFQGSHVPFTFGSGTKLEIK
notes: Mouse IgG2b, kappa, from hybridoma; also called 641H1E7
B11: ACI-7069-646B7-Ab1 (antibody, mouse IgG2b, V domains shown)
VH: QVQLKESGPGLVAPSQSLSITCTVSGFSLTNFGVHWVRQPPGKGLEWLGIMWAGGSTNYNSALMSRLSISKDNSKSQVFLKMNSLQTDDTAMYYCVIYKTGFAYWGQGTLVTVSA
VL: DVLMTQTPLSLPVSLGDQASISCRSSQSIVHAIGNTYLEWYLQKPGQSPKLLIYKVSNRFSGVPDRFSGSGSGTDFTLKISRVEAEDLGVYYCFQGSHVPFTFGSGTKLEIK
notes: Mouse IgG2b, kappa, from hybridoma; also called 646B7F7

Columns and labels:
[1] = target: T1, recombinant human full-length TDP-43 (TAR DNA-binding protein 43), soluble (human, UniProt Q13148 1-414); assay: Luminex, FL TDP-43 on beads
T1 construct: Used on Luminex beads, coated on ELISA plates, and immobilized or injected in SPR; also called FL TDP-43; TDP-43 protein
Description: Mice were euthanized and fusion with myeloma cells was performed using splenocytes from four individual mice. Screening for antibodies from the successfully fused hybridoma cell lines were performed as follows. Diluted (1:32) cell culture supernatants were analyzed using Luminex bead-based multiplex assay (Luminex, The Netherlands). Luminex beads were conjugated to FL TDP-43 and with capturing IgGs with anti-mouse IgG-Fc antibodies specific for the IgG1, IgG2a, IgG2b, IgG2c, and IgG3 subclasses (Jackson Immunoresearch, USA). Binding to beads conjugated to FL TDP-43 identified 386 hits derived from mice immunized with the FL TDP-43 liposomal vaccine.
Luminex assays with serial dilution of antibodies were performed as described before to determine half maximal effective concentration (EC50) of binding of antibodies to FL TDP-43. In summary, all tested antibodies bind to full length TDP-43 with high affinity.

[2] = target: T1, recombinant human full-length TDP-43 …; assay: SPR, immobilized soluble TDP-43
Description: (§1) Binding avidity to soluble or aggregated FL TDP-43 was evaluated by determing the dissociation constants (KD) using surface plasmon resonance (SPR; Biacore T200, GE Healthcare Life Sciences). Recombinant human soluble or aggregated FL TDP-43 were immobilized on a CM5 Series S sensor chip (GE Healthcare Life Sciences) by amine coupling. Soluble TDP-43 was immobilized at a concentration of 5 µg/ml in 10 mM sodium acetate (pH 4.5) with a flow rate of 5 µl/min for 420 seconds resulting in an immobilization level of 150 RU. Aggregated TDP-43 was immobilized at a concentration of 50 µg/ml in 10 mM sodium acetate (pH 4.5) with a flow rate of 5 µl/min for 840 seconds resulting in an immobilization level of 110 RU. Biotinylated TP-73 peptide (aa 181-190 of SEQ ID NO:1) was immobilized on a Series S Sensor Chip SA (GE Healthcare Life Sciences) at a concentration of 5 µg/ml in PBS-P⁺ with a flow rate of 5 µl/min for 30 seconds resulting in an immobilization level of 400 RU. […] The antibodies were injected at a flow rate of 50 µl/min for 90 seconds contact time and 700 seconds dissociation phase followed by three regenerations with 10 mM glycine-HCl pH 1.7. For the optimized SPR protocol the antibodies were diluted 3-fold starting from 300 nM and dilute down to 1.2 nM and injected for 300 seconds at 30 µl/min followed by 600 seconds dissociation. The surface was regenerated by one injection with 10 mM glycine-HCl pH 1.7. Results obtained from binding kinetics were double-referenced using a blank flow cell and a buffer cycle and were evaluated with a global 1:1 fitting model with RI. Avidities for 11 antibodies and two Fab fragments are depicted in Table 8. […] In addition, some antibodies show preferential binding to aggregated TDP-43 as compared with soluble TDP-43.

[3] = target: T1, recombinant human full-length TDP-43 …; assay: indirect ELISA, coated FL TDP-43
Description: Antibody binding to human FL TDP-43 was determined using an indirect ELISA. ELISA plate coating with 1 µg/ml human FL TDP-43 was performed overnight in carbonate buffer at 4° C. Plates were washed with 0.05% Tween-20/PBS and then blocked with 1% bovine serum albumin (BSA) in 0.05% Tween-20/PBS for 1 hour at 37° C. Antibodies purified from hybridoma supernatants were then added in a 3-fold serial dilution starting at 1 µg/ml, and incubated for 2 hours at 37° C. after which the plates were washed. An AP-conjugated anti-mouse IgG secondary antibody (Jackson Immunoresearch Laboratories, United Kingdom) was added at 1/1000 dilution in 0.05% Tween-20/PBS for 1 hour at 37° C. After the final wash, plates were incubated with pNPP (Sigma-Aldrich, Switzerland) phosphatase substrate solution, and read at 405 nm using an ELISA plate reader (Tecan, Switzerland).

[4] = target: T2, recombinant human aggregated full-length TDP-43 (human, UniProt Q13148 1-414); assay: SPR, immobilized aggregated TDP-43
T2 construct: also called aggregated TDP-43; aggregated FL TDP-43
Description: as §1

[5] = target: T1, recombinant human full-length TDP-43 …; assay: SPR optimized protocol, immobilized soluble TDP-43
[6] = target: T2, recombinant human aggregated …; assay: SPR optimized protocol, immobilized aggregated TDP-43
[7] = target: T1, recombinant human full-length TDP-43 …; assay: SPR, immobilized soluble TDP-43; Fab fragment, not whole antibody; soluble TDP-43 on the chip
[8] = target: T1, recombinant human full-length TDP-43 …; assay: SPR, mAb captured, FL TDP-43 injected; mean
Description: Binding affinity to soluble FL TDP-43 was evaluated by determing the dissociation constants (KD) using surface plasmon resonance (SPR; Biacore T200, GE Healthcare Life Sciences). Goat-anti mouse capture antibody was immobilized on a CM5 Series S sensor chip (GE Healthcare Life Sciences) by amine coupling. Antibodies were captured at a concentration of 2-5 µg/ml in PBS-P⁺ (GE Healthcare Life Sciences) with a flow rate of 10 µl/min for 120 seconds resulting in a capture level of 350-1000 RU. […] Dissociation was recorded for 1 h followed by one regeneration with 10 mM glycine-HCl pH 1.7. Results obtained from binding kinetics were double-referenced using a blank flow cell and a buffer cycle and were evaluated with a global 1:1 fitting model with RI.

T2 sequence (Q13148 whole entry): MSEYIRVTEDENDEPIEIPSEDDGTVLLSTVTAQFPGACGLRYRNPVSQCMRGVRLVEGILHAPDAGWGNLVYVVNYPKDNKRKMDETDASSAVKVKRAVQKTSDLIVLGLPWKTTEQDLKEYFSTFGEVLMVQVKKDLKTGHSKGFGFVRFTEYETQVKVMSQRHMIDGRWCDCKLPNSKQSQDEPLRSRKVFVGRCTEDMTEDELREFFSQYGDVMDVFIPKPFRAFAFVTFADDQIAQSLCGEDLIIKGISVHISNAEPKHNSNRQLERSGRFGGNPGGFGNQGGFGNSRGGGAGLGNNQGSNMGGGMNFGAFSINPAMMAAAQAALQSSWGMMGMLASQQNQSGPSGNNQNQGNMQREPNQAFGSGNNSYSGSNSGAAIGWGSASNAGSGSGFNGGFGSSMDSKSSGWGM
T1 sequence (Q13148 whole entry): as above

Binder	EC50 [1] [nM]	Kd [2] [nM]	koff [2] [s⁻¹]	kon [2] [M⁻¹ s⁻¹]	EC50 [3] [µg/mL]	Kd [4] [nM]	koff [4] [s⁻¹]	kon [4] [M⁻¹ s⁻¹]	Kd [5] [nM]	koff [5] [s⁻¹]	kon [5] [M⁻¹ s⁻¹]	Kd [6] [nM]	koff [6] [s⁻¹]	kon [6] [M⁻¹ s⁻¹]	Kd [7] [nM]	Kd [8] [nM]	koff [8] [s⁻¹]	kon [8] [M⁻¹ s⁻¹]
B1	0.18	406	0.000545	1340	0.102	0.68	2.36e-05	34800										
B2	< 0.01	10.6	0.000821	77100	0.017	2.25	0.000216	95900										
B3	< 0.01	43.8	0.000682	15600	0.015	2.43	0.000274	113000										
B4	< 0.01	19.7	0.000874	44300	0.053	1.51	0.000166	110000										
B5									3.9	0.00045	115000	0.69	9.87e-05	149000				
B6	< 0.01	486	0.000774	1590	0.053	0.82	7.1e-05	86100										
B7			0.000146	55100		6.9	0.000215	32200							2.8			
B8									0.22	1.08e-05	61800	0.18	1.32e-05	84000				
B9	< 0.01	1.68	0.000167	99400	0.014	0.81	7.63e-05	94700								0.423	1.36e-05	32000
B10	< 0.01	6.76	0.000841	125000	0.016	1.6	0.000193	121000										
B11	< 0.01	3.66	0.00065	178000	0.011	1.28	0.000184	144000										
